Target: mCherry-RAB28 (UniProt Q99KL7 1-221)
Assay: co-IP

- fraction of CFAP418 pulled down: ~0.1%
B1: FLAG-CFAP418 (natural protein)
chain: MAKDLDELLDEVETKFCRLDPLRLDLGERPKGDGGGGSHSGDRNGAQEKETLRSTETFKKEDDLDSLINEIFEEPDFDRKSFQKFKSKSSSNTCVRAPMQGVSKSCSPVYLSGSAIPCGIGTNTSQRACDRLRCVACDFRIVSYNDYMWDKSCDYLFFRNNMPEFHKLKTKLIEKKGARAYACQCSWRTVEELTDLQTDHQLRWVCGKH

From article doi:10.1101/2022.06.13.495990 (bioRxiv, 2022)
